Measured values: the supplement of paper PMC11780869

Test system: Bacillus subtilis
Assay: cleaved RNA product abundance (RNA/gDNA barcode ratio) relative to median wild-type variant (ratio to wild type); higher = more accumulation of the downstream cleavage product
Details: cleavage site: cggR-gapA (positions -7 to +36 mutated)
Method in brief: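 Oligos with a 9% error rate were used to build barcoded, mutagenized RNase Y cleavage-site windows within truncated aprE or tetM reporter mRNAs, which were integrated into the B. subtilis chromosome. Cultures were grown in LB at 37°C between OD600 0.0003 and 0.3. Cleaved RNA was gel-selected, reverse transcribed and barcode-sequenced, as were genomic DNA barcodes, and UMIs were collapsed. Cleaved product abundance is the scaled RNA:gDNA barcode ratio, with the median construct carrying the unmutated site as reference.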

[1] = experiment (reporter, strain, medium): exp 2b: truncated aprE reporter, strain BJT200
[2] = experiment (reporter, strain, medium): exp 4a: truncated aprE reporter, strain BJT201 with 2% xylose (RNase J1 expressed)
[3] = experiment (reporter, strain, medium): exp 6: tetM reporter, strain 168

Sequence | cleaved RNA product abundance [1] | cleaved RNA product abundance [2] | cleaved RNA product abundance [3]
ACAGACGAAGGAGCCGCAAAGAAGTTATTAAGGGATGATTAATCCCTCAATATTAATATCTCTCACTTATTTAAA | 0.164 |  | 
ACAGACGAAGGAGCCGCAAAGAAGTTATTAAGGGATGATTAATCCCTCAATTTAAATATCTCTCACTTATTTAAA |  | 0.0965 | 
ACAGACGAAGGAGCCGCAAAGAAGTTATTAAGGGATGATTAATCCCTGAATATAAATATCTCTCACTTATTTAAA |  | 0.458 | 
ACAGACGAAGGAGCCGCAAAGAAGTTATTAAGGGATGATTAATCCCTTAATATAAATATCTCTCACTTATTTAAA |  | 0.554 | 
ACAGACGAAGGAGCCGCAAAGAAGTTATTAAGGGATGATTAATCCTTCAATATAAATATCTCTCACTTATTTAAA | 0.306 | 0.469 | 
ACAGACGAAGGAGCCGCAAAGAAGTTATTAAGGGATGATTAATGCCTCAATATAAATATCTCTCACTTATTTAAA | 0.117 |  | 
ACAGACGAAGGAGCCGCAAAGAAGTTATTAAGGGATGATTAATTCCTCAATATAAATATCTCTCACTTATTTAAA | 0.271 |  | 
ACAGACGAAGGAGCCGCAAAGAAGTTATTAAGGGATGATTTATCCCTCAATATAAATATCTCTCACTTATTTAAA |  | 0.771 | 
ACAGACGAAGGAGCCGCAAAGAAGTTATTAAGGGATGCACAATCCCTCAATATAAATATCTCTCACTTATTTAAA |  | 0.547 | 
ACAGACGAAGGAGCCGCAAAGAAGTTATTAAGGGATGCATAAGCCCTCAATATAAATATCTCTCACTTATTTAAA |  | 0.732 | 
ACAGACGAAGGAGCCGCAAAGAAGTTATTAAGGGATGCATAATACCTCAATATAAATATCTCTCACTTATTTAAA | 0.129 | 0.141 | 
ACAGACGAAGGAGCCGCAAAGAAGTTATTAAGGGATGCATAATCACTCAATATAAATATCTCTCACTTATTTAAA | 0.0901 | 0.109 | 
ACAGACGAAGGAGCCGCAAAGAAGTTATTAAGGGATGCATAATCCCACAATATAAATATCTCTCACTTATTTAAA |  | 0.204 | 
ACAGACGAAGGAGCCGCAAAGAAGTTATTAAGGGATGCATAATCCCTAAATATAAATATCTCTCACTTATTTAAA |  | 0.76 | 
ACAGACGAAGGAGCCGCAAAGAAGTTATTAAGGGATGCATAATCCCTCAATAAAAATATCTCTCACTTATTTAAA |  | 0.139 | 
ACAGACGAAGGAGCCGCAAAGAAGTTATTAAGGGATGCATAATCCCTCAATATAAACATCTCTCACTTATTTAAA |  | 0.545 | 
ACAGACGAAGGAGCCGCAAAGAAGTTATTAAGGGATGCATAATCCCTCAATATAAATAGCTCTCACTTATTTAAA |  | 0.45 | 
ACAGACGAAGGAGCCGCAAAGAAGTTATTAAGGGATGCATAATCCCTCAATATAAATATCTCTCACTTATTTAAA | 0.856 | 0.844 | 1.15
ACAGACGAAGGAGCCGCAAAGAAGTTATTAAGGGATGCATAATCCCTCAATTTAAATATCTCTCACTTATTTAAA | 0.177 |  | 
ACAGACGAAGGAGCCGCAAAGAAGTTATTAAGGGATGCATAATCCCTCACTATAAATATCTCTCACTTATTTAAA |  | 0.233 | 
ACAGACGAAGGAGCCGCAAAGAAGTTATTAAGGGATGCATAATCTCTCAATATAAATATCTCTCACTTATTTAAA |  | 0.725 | 
ACAGACGAAGGAGCCGCAAAGAAGTTATTAAGGGATGCATAATTCCTCAATATAAATATCTCTCACTTATTTAAA |  | 0.559 | 
ACAGACGAAGGAGCCGCAAAGAAGTTATTAAGGGATGCATCATCCCTCAATATAAATATCTCTCACTTATTTAAA |  | 0.307 | 
ACAGACGAAGGAGCCGCAAAGAAGTTATTAAGGGATGCGTAATCCCTCAATATAAATATCTCTCACTTATTTAAA |  | 0.629 | 
ACAGACGAAGGAGCCGCAAAGAAGTTATTAAGGGATGGATAATACCTCAATATAAATATCTCTCACTTATTTAAA |  | 0.103 | 
ACAGACGAAGGAGCCGCAAAGAAGTTATTAAGGGATGGATAATCCATCAATATAAATATCTCTCACTTATTTAAA |  | 0.189 | 
ACAGACGAAGGAGCCGCAAAGAAGTTATTAAGGGATGGATAATCCCTAAATATAAATATCTCTCACTTATTTAAA |  | 0.553 | 
ACAGACGAAGGAGCCGCAAAGAAGTTATTAAGGGATGGATAATCCCTCAATATAAAAATCTCTCACTTATTTAAA |  | 0.356 | 

Sequence | cleaved RNA product abundance [1] | cleaved RNA product abundance [2] | cleaved RNA product abundance [3]
ACAGACGAAGGAGCCGCAAAGAAGTTATTAAGGGATGGATAATCCCTCAATATAAATATCTCTCACTTATTTAAA | 0.623 | 0.884 | 0.969
ACAGACGAAGGAGCCGCAAAGAAGTTATTAAGGGATGGATAATCCCTCGATATAAATATCTCTCACTTATTTAAA |  | 0.235 | 
ACAGACGAAGGAGCCGCAAAGAAGTTATTAAGGGATGGATAATCCGTCAATATAAATATCTCTCACTTATTTAAA |  | 0.149 | 
ACAGACGAAGGAGCCGCAAAGAAGTTATTAAGGGATGGATAATTCCTCAATATAAATATCTCTCACTTATTTAAA |  | 0.58 | 
ACAGACGAAGGAGCCGCAAAGAAGTTATTAAGGGATGGATACTCCCTCAATATAAATATCTCTCACTTATTTAAA | 0.263 |  | 
ACAGACGAAGGAGCCGCAAAGAAGTTATTAAGGGATGTAAAATCCCTCAATATAAATATCTCTCACTTATTTAAA |  | 1.04 | 
ACAGACGAAGGAGCCGCAAAGAAGTTATTAAGGGATGTAGAATCCCTCAATATAAATATCTCTCACTTATTTAAA |  | 0.768 | 
ACAGACGAAGGAGCCGCAAAGAAGTTATTAAGGGATGTATAAACCCTCAATATAAATATCTCTCACTTATTTAAA | 0.448 | 0.592 | 
ACAGACGAAGGAGCCGCAAAGAAGTTATTAAGGGATGTATAATACCTCAATATAAATATCTCTCACTTATTTAAA | 0.139 | 0.103 | 
ACAGACGAAGGAGCCGCAAAGAAGTTATTAAGGGATGTATAATCCATCAATATAAATATCTCTCACTTATTTAAA | 0.175 | 0.238 | 
ACAGACGAAGGAGCCGCAAAGAAGTTATTAAGGGATGTATAATCCCACAATATAAATATCTCTCACTTATTTAAA |  | 0.308 | 
ACAGACGAAGGAGCCGCAAAGAAGTTATTAAGGGATGTATAATCCCCCAATATAAATATCTCTCACTTATTTAAA | 0.205 |  | 
ACAGACGAAGGAGCCGCAAAGAAGTTATTAAGGGATGTATAATCCCTAAATATAAATATCTCTCACTTATTTAAA | 0.551 | 0.748 | 
ACAGACGAAGGAGCCGCAAAGAAGTTATTAAGGGATGTATAATCCCTCAAAATAAATATCTCTCACTTATTTAAA | 0.267 | 0.344 | 
ACAGACGAAGGAGCCGCAAAGAAGTTATTAAGGGATGTATAATCCCTCAATATAAAAATCTCTCACTTATTTAAA |  | 0.439 | 
ACAGACGAAGGAGCCGCAAAGAAGTTATTAAGGGATGTATAATCCCTCAATATAAATATCTCTCACTTATTTAAA | 0.943 | 0.978 | 0.798
ACAGACGAAGGAGCCGCAAAGAAGTTATTAAGGGATGTATAATCCCTCAATATAAATCTCTCTCACTTATTTAAA |  | 0.82 | 
ACAGACGAAGGAGCCGCAAAGAAGTTATTAAGGGATGTATAATCCCTCAATATATATATCTCTCACTTATTTAAA | 0.631 |  | 
ACAGACGAAGGAGCCGCAAAGAAGTTATTAAGGGATGTATAATCCCTCAATTTAAATATCTCTCACTTATTTAAA | 0.218 | 0.146 | 
ACAGACGAAGGAGCCGCAAAGAAGTTATTAAGGGATGTATAATCCCTCAGTATAAATATCTCTCACTTATTTAAA | 0.218 | 0.237 | 
ACAGACGAAGGAGCCGCAAAGAAGTTATTAAGGGATGTATAATCCCTCATTATAAATATCTCTCACTTATTTAAA |  | 0.387 | 
ACAGACGAAGGAGCCGCAAAGAAGTTATTAAGGGATGTATAATCCCTCCATATAAATATCTCTCACTTATTTAAA | 0.162 |  | 
ACAGACGAAGGAGCCGCAAAGAAGTTATTAAGGGATGTATAATCCCTGAATATAAATATCTCTCACTTATTTAAA |  | 0.461 | 
ACAGACGAAGGAGCCGCAAAGAAGTTATTAAGGGATGTATAATCCCTTAATATAAATATCTCTCACTTATTTAAA |  | 0.445 | 
ACAGACGAAGGAGCCGCAAAGAAGTTATTAAGGGATGTATAATCCGTCAATATAAATATCTCTCACTTATTTAAA |  | 0.187 | 
ACAGACGAAGGAGCCGCAAAGAAGTTATTAAGGGATGTATAATCCTTCAATATAAATATCTCTCACTTATTTAAA |  | 0.922 | 
ACAGACGAAGGAGCCGCAAAGAAGTTATTAAGGGATGTATAATCGCTCAATATAAATATCTCTCACTTATTTAAA |  | 0.173 | 
